Data as given in patent publication US20200199207A1 (MABYLON, published 2020).
One block for each binder: values may come before it.

Key:
Assay in all cases: competition ELISA, peptide in solution vs coated Ara h 2
Peptide 1 = molecular target: T1, Peptide 1 (peanut)
T1 construct: 20-mer of Ara h 2, overlap of 12 with its neighbours; also called linear Ara h 2 peptide 1
T1 peptide: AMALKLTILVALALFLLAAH
Procedure: (§1) A competition ELISA was used to evaluate binding of exemplary anti-peanut antibodies of the present invention to linear Ara h 2 epitopes. Serial dilutions of linear Ara h 2 epitopes (100 μM down to 0.19 nM; peptides with a length of 20 amino acids and an overlap of 12 amino acids between the peptides) were pre-incubated with exemplary anti-peanut antibodies ([…]) for 1 hour at room temperature. The pre-incubated antibody-epitope mixtures were subsequently incubated on plates coated with full length Ara h 2 (coating overnight at 4° C. with 0.05 μg/ml Ara h 2 in PBS, followed by wash out and blocking with 2% BSA in PBS). The plates were subsequently washed and binding of MAbs to Ara h 2 was detected HRP-conjugated goat anti human Fc-gamma-specific antibody (Jackson ImmunoResearch, West Grove, Pa., USA) followed by measurement of the HRP activity using a tetramethylbenzidine substrate solution (TMB, Sigma-Aldrich Chemie GmbH, Buchs, Switzerland). As may be seen from Table 5, exemplary anti-peanut allergen antibody 32B10 binds to different linear Ara h 2 epitopes than 12G10 and 37D5.

Peptide 2 = molecular target: T2, Peptide 2 (peanut)
T2 construct: also called linear Ara h 2 peptide 2
T2 peptide: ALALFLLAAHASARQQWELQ
Procedure: as §1

Peptide 3 = molecular target: T3, Peptide 3 (peanut)
T3 construct: also called linear Ara h 2 peptide 3
T3 peptide: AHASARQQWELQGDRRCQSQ
Procedure: as §1

Peptide 4 = molecular target: T4, Peptide 4 (peanut)
T4 construct: also called linear Ara h 2 peptide 4
T4 peptide: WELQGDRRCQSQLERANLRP
Procedure: as §1

Peptide 5 = molecular target: T5, Peptide 5 (peanut)
T5 construct: also called linear Ara h 2 peptide 5
T5 peptide: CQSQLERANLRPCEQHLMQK
Procedure: as §1

Peptide 6 = molecular target: T6, Peptide 6 (peanut)
T6 construct: also called linear Ara h 2 peptide 6
T6 peptide: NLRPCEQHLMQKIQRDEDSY
Procedure: as §1

Peptide 7 = molecular target: T7, Peptide 7 (peanut)
T7 construct: also called linear Ara h 2 peptide 7
T7 peptide: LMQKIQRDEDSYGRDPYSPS
Procedure: as §1

Peptide 8 = molecular target: T8, Peptide 8 (peanut)
T8 construct: also called linear Ara h 2 peptide 8
T8 peptide: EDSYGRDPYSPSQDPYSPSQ
Procedure: as §1

Peptide 9 = molecular target: T9, Peptide 9 (peanut)
T9 construct: also called linear Ara h 2 peptide 9
T9 peptide: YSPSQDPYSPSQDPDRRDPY
Procedure: as §1

Peptide 10 = molecular target: T10, Peptide 10 (peanut)
T10 construct: also called linear Ara h 2 peptide 10
T10 peptide: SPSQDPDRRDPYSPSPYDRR
Procedure: as §1

Peptide 11 = molecular target: T11, Peptide 11 (peanut)
T11 construct: also called linear Ara h 2 peptide 11
T11 peptide: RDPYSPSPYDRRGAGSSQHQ
Procedure: as §1

Peptide 12 = molecular target: T12, Peptide 12 (peanut)
T12 construct: also called linear Ara h 2 peptide 12
T12 peptide: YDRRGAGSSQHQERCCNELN
Procedure: as §1

Peptide 13 = molecular target: T13, Peptide 13 (peanut)
T13 construct: also called linear Ara h 2 peptide 13
T13 peptide: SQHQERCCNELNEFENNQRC
Procedure: as §1

Peptide 14 = molecular target: T14, Peptide 14 (peanut)
T14 construct: also called linear Ara h 2 peptide 14
T14 peptide: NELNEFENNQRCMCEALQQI
Procedure: as §1

Peptide 15 = molecular target: T15, Peptide 15 (peanut)
T15 construct: also called linear Ara h 2 peptide 15
T15 peptide: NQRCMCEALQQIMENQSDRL
Procedure: as §1

Peptide 16 = molecular target: T16, Peptide 16 (peanut)
T16 construct: also called linear Ara h 2 peptide 16
T16 peptide: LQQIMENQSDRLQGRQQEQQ
Procedure: as §1

Peptide 17 = molecular target: T17, Peptide 17 (peanut)
T17 construct: also called linear Ara h 2 peptide 17
T17 peptide: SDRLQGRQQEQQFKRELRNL
Procedure: as §1

Peptide 18 = molecular target: T18, Peptide 18 (peanut)
T18 construct: also called linear Ara h 2 peptide 18
T18 peptide: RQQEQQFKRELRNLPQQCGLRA
Procedure: as §1

Peptide 19 = molecular target: T19, Peptide 19 (peanut)
T19 construct: also called linear Ara h 2 peptide 19
T19 peptide: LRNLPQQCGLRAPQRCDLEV
Procedure: as §1

Peptide 20 = molecular target: T20, Peptide 20 (peanut)
T20 construct: also called linear Ara h 2 peptide 20
T20 peptide: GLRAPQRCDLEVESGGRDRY
Procedure: as §1

binding result (Peptide 1): no binding (tested: 100 µM)
binding result (Peptide 2): no binding (tested: 100 µM)
binding result (Peptide 3): no binding (tested: 100 µM)
binding result (Peptide 4): no binding (tested: 100 µM)
binding result (Peptide 5): no binding (tested: 100 µM)
binding result (Peptide 6): no binding (tested: 100 µM)
binding result (Peptide 7): no binding (tested: 100 µM)
binding result (Peptide 8): no binding (tested: 100 µM)
binding result (Peptide 9): no binding (tested: 100 µM)
binding result (Peptide 10): no binding (tested: 100 µM)
binding result (Peptide 11): no binding (tested: 100 µM)
binding result (Peptide 12): no binding (tested: 100 µM)
binding result (Peptide 13): no binding (tested: 100 µM)
binding result (Peptide 14): no binding (tested: 100 µM)
binding result (Peptide 15): no binding (tested: 100 µM)
binding result (Peptide 16): no binding (tested: 100 µM)
binding result (Peptide 17): no binding (tested: 100 µM)
binding result (Peptide 18): no binding (tested: 100 µM)
binding result (Peptide 19): no binding (tested: 100 µM)
binding result (Peptide 20): no binding (tested: 100 µM)
B1: h2F8 (antibody, V domains shown)
VH: EVQLVESGGGLVKPGGSLRLSCAASGFIFSDYNMNWVRQAPGKGLEWVSSITRSSRTIYYADSVKGRFTISRDNAKNSLHLQMNSLRDADTAVYYCAREDFDVSTGPYYMDVWGNGTTVIVSS
VL: EIVLTQSPGTLSLSPGERATLSCRASQSVSNMFLVWYQQKPGQAPRLLMYGASTRATDIPDRFSGSGSGTDFTLTISRLEPEDFAVYYCQQNGNSPYTFGQGTKLEIK
notes: Recombinant human IgG; also called hMAb 2F8

binding result (Peptide 1): no binding (tested: 100 µM)
binding result (Peptide 2): no binding (tested: 100 µM)
binding result (Peptide 3): no binding (tested: 100 µM)
binding result (Peptide 4): no binding (tested: 100 µM)
binding result (Peptide 5): no binding (tested: 100 µM)
binding result (Peptide 6): no binding (tested: 100 µM)
binding result (Peptide 7): no binding (tested: 100 µM)
binding result (Peptide 8): no binding (tested: 100 µM)
binding result (Peptide 9): no binding (tested: 100 µM)
binding result (Peptide 10): no binding (tested: 100 µM)
binding result (Peptide 11): no binding (tested: 100 µM)
binding result (Peptide 12): no binding (tested: 100 µM)
binding result (Peptide 13): no binding (tested: 100 µM)
binding result (Peptide 14): no binding (tested: 100 µM)
binding result (Peptide 15): no binding (tested: 100 µM)
binding result (Peptide 16): no binding (tested: 100 µM)
binding result (Peptide 17): no binding (tested: 100 µM)
binding result (Peptide 18): no binding (tested: 100 µM)
binding result (Peptide 19): no binding (tested: 100 µM)
binding result (Peptide 20): no binding (tested: 100 µM)
B2: h7G6 (antibody, V domains shown)
VH: QVQLVESGGGVVQPGRSLRLSCAASGIAFNDYTMHWVRRSPDKGLEWVAAISYGGTNKYYADSVKGRFTISRDSSKNTLFLQMDSLRVEDTAVYYCARDSGYRSLLHWGQGTLVTVSS
VL: EIVLTQSPLSLPVTPGEPASISCRSSQSLVHRNGYNYLDWYLQKPGQSPQLLIYMASKRASGVPDRFSGSGSGTEFTLKISRVEAEDVGIYYCMQALQTWTFGQGTKVEVN
notes: Recombinant human IgG; also called hMAb 7G6
